Experimental data from publication PMC4852461, “A closed conformation of the Caenorhabditis elegans separase–securin complex” (Open Biology, 2016).

Biological target: T1, strep II-tagged full-length C. elegans separase (C. elegans, UniProt G5ED39 1-1262)
T1 construct: separase, Caenorhabditis elegans, full length (residues up to 1262; molecular weight 144.2 kDa); Vector pFBDM-strepII: double strepII tag with a PreScission cleavage site; also called strep II-tagged separase; source: Sf9 insect cells, co-expressed with securin, purified as complex (StrepTactin, SEC)
T1 sequence (looked up): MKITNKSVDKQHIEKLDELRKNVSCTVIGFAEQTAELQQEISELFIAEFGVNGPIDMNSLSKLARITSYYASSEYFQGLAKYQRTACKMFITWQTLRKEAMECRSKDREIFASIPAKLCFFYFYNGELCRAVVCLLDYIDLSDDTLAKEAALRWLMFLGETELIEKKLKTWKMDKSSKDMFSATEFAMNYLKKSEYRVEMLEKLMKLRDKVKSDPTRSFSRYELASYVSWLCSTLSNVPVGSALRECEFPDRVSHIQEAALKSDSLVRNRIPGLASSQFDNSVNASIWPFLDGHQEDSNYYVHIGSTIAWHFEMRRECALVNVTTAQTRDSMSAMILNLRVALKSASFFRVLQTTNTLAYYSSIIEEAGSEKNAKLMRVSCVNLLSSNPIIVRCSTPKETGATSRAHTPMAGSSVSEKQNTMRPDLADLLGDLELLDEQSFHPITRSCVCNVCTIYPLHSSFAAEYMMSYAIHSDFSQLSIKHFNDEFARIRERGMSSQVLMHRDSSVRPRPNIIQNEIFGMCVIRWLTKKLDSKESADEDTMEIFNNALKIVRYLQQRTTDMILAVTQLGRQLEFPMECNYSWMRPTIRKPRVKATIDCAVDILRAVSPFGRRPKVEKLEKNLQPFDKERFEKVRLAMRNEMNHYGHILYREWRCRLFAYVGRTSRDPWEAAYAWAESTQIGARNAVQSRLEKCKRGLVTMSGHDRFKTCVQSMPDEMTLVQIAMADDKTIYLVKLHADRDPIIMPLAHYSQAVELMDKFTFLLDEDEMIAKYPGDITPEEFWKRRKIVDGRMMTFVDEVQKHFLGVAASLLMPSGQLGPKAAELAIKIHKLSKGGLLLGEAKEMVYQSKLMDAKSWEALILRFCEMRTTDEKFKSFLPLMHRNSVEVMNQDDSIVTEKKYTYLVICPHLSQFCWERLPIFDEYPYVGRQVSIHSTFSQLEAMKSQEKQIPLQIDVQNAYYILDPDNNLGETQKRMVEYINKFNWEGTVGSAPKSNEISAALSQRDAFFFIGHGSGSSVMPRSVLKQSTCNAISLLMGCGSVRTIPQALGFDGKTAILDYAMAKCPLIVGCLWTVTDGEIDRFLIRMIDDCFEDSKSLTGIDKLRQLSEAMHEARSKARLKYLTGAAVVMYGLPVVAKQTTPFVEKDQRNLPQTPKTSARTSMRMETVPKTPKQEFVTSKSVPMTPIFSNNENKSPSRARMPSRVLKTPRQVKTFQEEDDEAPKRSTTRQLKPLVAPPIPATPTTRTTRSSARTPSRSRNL
Experiment: SEC-MALS; 1 mg/ml purified complex on Superose 6 10/300; 50 mM sodium phosphate, 100 mM NaCl, 20 mM NaF, 10% glycerol, 5 mM 2-mercaptoethanol, 3 mM sodium azide, pH 8.0
Details: both partners purified

B1: full-length C. elegans securin (co-expressed with StrepII-tagged separase) (natural protein, UniProt Q18235 1-244, looked up)
chain: MEDLNFEERGSTQIPASLQQHFSAKLGRQNELEKTPSRGGLGLVVNSSKTPGGKSLQSLASACKVPPSTKKNTIPIAFECYEDETDDQIADVATIKKTEKHPCSPIDTANRCETFDSLAADIEDDMLNLEDQDVVLSEDRPYGDVIDPAESEAEALAELGVEEWDSYPPIDPASRIGDDFNYVLRTEDFAEEGDVKLEETRHRTVIADIDEVKMSKAERNELFSMLADDLDSYDLLAEEANLPL
notes: it may be the same construct as m2; also called securin FL; source: Sf9 insect cells, co-expressed with StrepII-separase; in soluble lysate (pull-down) and purified as complex (StrepTactin, SEC)
In the case of B1, the “stoichiometry N” value is reported as 1.
